Laboratory results reported in the supplement of paper PMC9876800.

Test system: peptide library, one residue held at a place counted from the S/T acceptor
Assay: relative phosphorylation of the sub-library (ratio to the mean residue at this position); higher = residue favoured
How it was run: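 Relative sub-library phosphorylation is a ratio to the mean residue at the same position. Purified recombinant kinases were incubated under kinase-specific conditions with biotinylated degenerate peptide sub-libraries, each fixing one residue at one position around a central Ser/Thr, using 50 μM peptide and 50 μM ATP spiked with γ-32P-ATP for 90 min. Spots captured on streptavidin membranes were phosphorimaged and quantified by densitometry.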

BMPR2, construct: aa172-end, human, sequence (Q13873 172-1038, looked up): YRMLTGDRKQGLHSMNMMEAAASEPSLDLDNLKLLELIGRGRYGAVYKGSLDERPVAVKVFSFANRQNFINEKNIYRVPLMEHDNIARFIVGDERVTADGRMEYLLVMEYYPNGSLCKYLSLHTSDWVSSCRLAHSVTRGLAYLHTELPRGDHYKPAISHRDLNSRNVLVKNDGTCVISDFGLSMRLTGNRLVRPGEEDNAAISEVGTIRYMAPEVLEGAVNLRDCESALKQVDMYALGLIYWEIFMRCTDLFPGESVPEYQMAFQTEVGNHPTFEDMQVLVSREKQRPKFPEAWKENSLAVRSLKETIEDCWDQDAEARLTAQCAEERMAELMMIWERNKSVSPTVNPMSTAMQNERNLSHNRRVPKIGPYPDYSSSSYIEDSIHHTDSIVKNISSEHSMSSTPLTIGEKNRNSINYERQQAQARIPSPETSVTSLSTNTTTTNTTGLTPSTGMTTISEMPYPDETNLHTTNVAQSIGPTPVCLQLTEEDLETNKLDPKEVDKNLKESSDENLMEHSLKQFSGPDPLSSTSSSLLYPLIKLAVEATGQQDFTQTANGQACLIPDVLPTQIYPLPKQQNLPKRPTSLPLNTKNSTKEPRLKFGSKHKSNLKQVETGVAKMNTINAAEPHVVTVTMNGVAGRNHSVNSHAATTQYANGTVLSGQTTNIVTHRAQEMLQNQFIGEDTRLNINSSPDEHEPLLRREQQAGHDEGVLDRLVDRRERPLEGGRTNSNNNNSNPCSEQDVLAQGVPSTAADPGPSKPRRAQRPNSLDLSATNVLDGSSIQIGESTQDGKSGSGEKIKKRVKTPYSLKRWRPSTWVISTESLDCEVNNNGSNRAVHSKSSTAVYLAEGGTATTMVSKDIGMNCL
BMPR1A, construct: aa187-end, human, sequence (P36894 187-532, looked up): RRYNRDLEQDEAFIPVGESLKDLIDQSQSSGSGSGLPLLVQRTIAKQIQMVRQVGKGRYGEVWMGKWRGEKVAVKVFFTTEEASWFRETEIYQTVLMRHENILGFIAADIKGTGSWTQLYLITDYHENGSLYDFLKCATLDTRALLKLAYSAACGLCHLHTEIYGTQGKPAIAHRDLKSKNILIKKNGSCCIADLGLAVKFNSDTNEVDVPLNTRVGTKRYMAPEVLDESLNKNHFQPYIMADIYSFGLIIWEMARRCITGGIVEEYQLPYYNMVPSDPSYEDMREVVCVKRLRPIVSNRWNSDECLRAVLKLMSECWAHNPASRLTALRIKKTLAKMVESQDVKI

BMPR1A, construct: aa187-end, human (from UniProt P36894)
relative phosphorylation
Conditions | at +1 | at +2 | at +3 | at +4 | at -1 | at -2 | at -3 | at -4 | at -5
A fixed | 0.574 | 0.952 | 0.911 | 0.854 | 0.648 | 0.721 | 0.791 | 0.912 | 0.982
D fixed | 2.03 | 1.24 | 1.79 | 1.3 | 1.72 | 1.97 | 2.32 | 2.47 | 1.88
E fixed | 6.79 | 1.52 | 1.55 | 1.31 | 1.95 | 7.73 | 2.92 | 1.81 | 1.65
F fixed | 0.398 | 0.622 | 0.89 | 0.889 | 0.797 | 0.384 | 0.65 | 0.792 | 0.807
G fixed | 0.58 | 1.89 | 0.941 | 1 | 0.483 | 0.579 | 0.948 | 0.958 | 0.93
H fixed | 0.431 | 1.25 | 0.889 | 1.06 | 0.983 | 0.483 | 0.826 | 0.987 | 1.02
I fixed | 0.677 | 0.554 | 1.01 | 1.01 | 0.809 | 0.432 | 0.662 | 0.781 | 0.83
K fixed | 0.335 | 0.803 | 0.498 | 0.738 | 0.587 | 0.351 | 0.564 | 0.741 | 0.86
L fixed | 0.417 | 0.613 | 0.926 | 0.797 | 1.17 | 0.453 | 0.649 | 0.701 | 0.802
M fixed | 0.57 | 0.721 | 0.85 | 0.922 | 1.67 | 0.462 | 0.859 | 0.808 | 0.791
N fixed | 0.668 | 0.776 | 0.793 | 0.946 | 1.01 | 0.693 | 1.24 | 1.08 | 1.22
P fixed | 0.265 | 1.31 | 0.936 | 0.964 | 0.466 | 0.401 | 0.74 | 0.775 | 0.699
Q fixed | 0.644 | 0.735 | 0.729 | 0.931 | 1.13 | 0.659 | 1.02 | 0.892 | 0.908
R fixed | 0.314 | 0.691 | 0.478 | 0.767 | 0.555 | 0.395 | 0.636 | 0.718 | 0.886
V fixed | 1.47 | 0.632 | 1.13 | 0.961 | 1.23 | 0.545 | 0.731 | 0.887 | 0.832
W fixed | 0.421 | 1.14 | 1.46 | 1.38 | 0.77 | 0.392 | 0.676 | 0.887 | 0.965
Y fixed | 0.417 | 1.55 | 1.21 | 1.18 | 1.02 | 0.349 | 0.755 | 0.791 | 0.928
pThr fixed | 5.36 | 1.98 | 1.01 | 1.31 | 1.08 | 1.66 | 2.19 | 1.53 | 1.46
pTyr fixed | 1.09 | 0.876 | 1.35 | 1.22 | 1.54 | 0.763 | 1.55 | 1.09 | 1.42

BMPR2, construct: aa172-end, human (from UniProt Q13873)
relative phosphorylation
Conditions | at +1 | at +2 | at +3 | at +4 | at -1 | at -2 | at -3 | at -4 | at -5
A fixed | 0.89 | 1 | 0.941 | 0.96 | 0.845 | 0.887 | 0.99 | 1.11 | 1.08
D fixed | 0.946 | 1.13 | 0.871 | 0.94 | 0.963 | 1.86 | 1.24 | 1.1 | 1.08
E fixed | 1.08 | 1.08 | 0.844 | 0.951 | 0.944 | 1.91 | 1.19 | 1.18 | 1.04
F fixed | 0.929 | 0.88 | 0.927 | 0.94 | 1.1 | 0.825 | 0.977 | 0.973 | 1.06
G fixed | 0.969 | 1.04 | 1.1 | 1.02 | 0.839 | 1.05 | 1.08 | 1.01 | 1.06
H fixed | 1.1 | 1.04 | 1.03 | 1 | 1.01 | 0.904 | 1.08 | 0.978 | 0.96
I fixed | 1.02 | 0.889 | 0.92 | 0.868 | 0.862 | 0.728 | 0.892 | 0.911 | 0.971
K fixed | 0.831 | 1.03 | 1.04 | 1.1 | 0.822 | 0.791 | 0.835 | 0.935 | 0.913
L fixed | 1.04 | 0.905 | 0.934 | 0.935 | 1.1 | 0.786 | 0.869 | 0.928 | 0.913
M fixed | 1.15 | 0.989 | 0.93 | 0.943 | 1.24 | 0.797 | 0.955 | 0.936 | 0.895
N fixed | 1.02 | 0.987 | 1.01 | 0.963 | 0.968 | 1.05 | 1.03 | 0.938 | 0.898
P fixed | 0.724 | 1.02 | 1.17 | 1.08 | 0.738 | 0.809 | 0.965 | 1.09 | 0.948
Q fixed | 1.04 | 1.01 | 0.949 | 0.973 | 0.986 | 1.15 | 1.04 | 0.919 | 0.861
R fixed | 0.933 | 1 | 1.22 | 1.18 | 0.905 | 0.816 | 0.873 | 0.867 | 0.956
V fixed | 0.999 | 0.972 | 0.989 | 0.926 | 1.03 | 0.822 | 0.862 | 0.979 | 1.01
W fixed | 1.1 | 0.94 | 0.998 | 1.16 | 1.24 | 0.855 | 1.03 | 1.05 | 1.18
Y fixed | 1.24 | 1.1 | 1.12 | 1.05 | 1.4 | 0.95 | 1.11 | 1.09 | 1.18
pThr fixed | 1.02 | 1.04 | 0.847 | 0.873 | 0.862 | 0.993 | 1.15 | 1.08 | 0.979
pTyr fixed | 0.907 | 0.891 | 0.883 | 0.86 | 1.56 | 1.06 | 1.34 | 1.1 | 1.07
